According to the supplement of paper PMC10126150:
± gives the standard deviation of the averaged measurements.

Test system: ATP
Assay: switch fluorescence ratio, 500 uM ATP over buffer (Cy3 cluster intensity, sum of 5 cycles each) (fold (ratio)); higher = stronger signal-on switching upon ATP binding; sequences stand for … in TCGTCGGCAGCGTCAGATGTGTATAAGAGACAGTTTTTTTTTTTTTTTTTTTTTTTTT…TC
Settings: aptamer strand: ATP DNA aptamer (quencher-CACCTGGGGGAGTATTGCGGAGGAAGG + anchor), 100 nM annealed; ATP concentration: 500 uM
Method in brief: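 Clusters carrying Cy3-labelled switching strands on a modified Illumina MiSeq flow-cell were annealed to 100 nM quencher-labelled ATP aptamer and imaged in selection buffer. They were imaged again after 15 min with 500 uM ATP at 22 °C, over five buffer/ATP cycles with NaOH stripping and re-annealing in between. For each cluster, the fluorescence ratio is the summed Cy3 intensity of the target cycles divided by that of the buffer cycles, averaged per switch-domain sequence. Clusters outside 100-1000 RFU were left out.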
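Further: ATP exposure 15 min at 22 °C before imaging.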

Row | Sequence | switch fluorescence ratio
1 | CGTAAAATGA | 0.992 ± 0.022
2 | TTAGTAGGGG | 1 ± 0.021
3 | GTATAAAACT | 0.9986 ± 0.0087
4 | GCGACGTTGC | 0.999 ± 0.036
5 | TTCGTTGAAT | 0.97 ± 0.024
6 | TTGTGGTCCT | 0.974 ± 0.029
7 | TTTCGACTTT | 1 ± 0.038
8 | ATGCATTAAG | 0.992 ± 0.051
9 | ATCAGAGGGG | 1.03 ± 0.019
10 | GGGTCTAAG | 0.987 ± 0.041
11 | TATGGTTTAC | 1 ± 0.017
12 | ATACTATGGT | 0.989 ± 0.038
13 | ACACCTCCAA | 1.04 ± 0.027
14 | CGTTATTTCT | 1.01 ± 0.052
15 | GGAGAACTTA | 1.04 ± 0.051
16 | TTTGAATGTA | 1.011 ± 0.0078
17 | GTTTTTAAGT | 1.03 ± 0.04
18 | GGGGGACCTT | 1.04 ± 0.061
19 | TTAGGCTAAA | 1.002 ± 0.0074
20 | TAGGGGGGT | 0.9765 ± 0.0032
21 | ACCCTGCAGA | 1.06 ± 0.0064
22 | GCTCCGGCGG | 1.24 ± 0.045
23 | AAAGGTTGCT | 1.007 ± 0.01

Row | Sequence | switch fluorescence ratio
24 | TACGTTTGCG | 1.01 ± 0.014
25 | ATGTTAAATC | 0.96 ± 0.029
26 | GGAATCAGGG | 0.99 ± 0.07
27 | GTGGGTATTA | 1 ± 0.023
28 | GCTTGGAAGC | 0.9909 ± 0.0089
29 | CCAGTGAGGG | 0.99 ± 0.026
30 | TGACTTAACT | 1.09 ± 0.034
31 | TATAAATTTT | 0.992 ± 0.036
32 | AGGAATCAAG | 0.9968 ± 0.0071
33 | TATGATTTAA | 1.01 ± 0.016
34 | GTTGGCAGTG | 0.978 ± 0.033
35 | TAATAAGGCT | 0.9935 ± 0.0076
36 | CGGCCTGTTG | 1.01 ± 0.026
37 | TTAGAAGTAT | 1.03 ± 0.046
38 | TTACACAAAA | 1 ± 0.033
39 | TTTATGGCGG | 1.01 ± 0.027
40 | TGGCTTTTGT | 1.44 ± 0.63
41 | ATGGGGGATA | 0.973 ± 0.041
42 | GATTGGAGGG | 0.997 ± 0.026
43 | TAGTATTGTA | 1 ± 0.039
44 | TTTTTTAGAC | 1.04 ± 0.08
45 | TTCCTCCTTC | 1.83 ± 0.89
46 | TTGGTTTGTT | 0.982 ± 0.018

Row | Sequence | switch fluorescence ratio
47 | TCAAAATGCT | 1.09 ± 0.058
48 | AAAATATTCG | 1.01 ± 0.011
49 | TTTATTAGAT | 0.982 ± 0.022
50 | TCATCGGTTT | 0.977 ± 0.017
51 | TAACGAGATT | 1.02 ± 0.026
52 | CGGGGGTCGA | 0.989 ± 0.031
53 | AAATCTTAAT | 1.002 ± 0.007
54 | CTCAATCGGG | 1.04 ± 0.021
55 | ACAAGATTGG | 1.01 ± 0.041
56 | GGGGGACCGG | 1.01 ± 0.072
57 | GCGATAAACC | 1.1929 ± 0.00026
58 | TATTAAGTGG | 1.05 ± 0.071
59 | GTGGCTAACT | 1.04 ± 0.035
60 | GGGGGGTGTT | 1.01 ± 0.019
61 | CGGGCGGGTG | 1.03 ± 0.017
62 | AAGGGCTACG | 0.983 ± 0.04
63 | CTTAGAGCGG | 1.01 ± 0.022
64 | TTAGAACTCC | 1.05 ± 0.036
65 | TAGCAGATCA | 0.994 ± 0.024
66 | AAACGGGGCT | 1.02 ± 0.012
67 | GGGCGCATCG | 0.999 ± 0.018
68 | ATAGGTGTTG | 1.02 ± 0.025
69 | CAATTGCGCT | 1.01 ± 0.016

Row | Sequence | switch fluorescence ratio
70 | ATATAAGAGC | 1.03 ± 0.02
71 | TGTGAAACAA | 1.01 ± 0.03
72 | TTTCCCGTAT | 1.07 ± 0.049
73 | TTGGTGTCGG | 0.974 ± 0.036
74 | AGGGGAAGAC | 1.29 ± 0.41
75 | GGTCACGTAT | 1.05 ± 0.014
76 | TTCCACGTAT | 1.18 ± 0.046
77 | GCGTAACAGT | 0.964 ± 0.045
78 | GGTACGGGGA | 1.03 ± 0.051
79 | GATTCTTGTT | 1.02 ± 0.046
80 | CCTTGGTACA | 1.03 ± 0.015
81 | GCGGTGAGAA | 0.983 ± 0.028
82 | TTACGGATGG | 1.03 ± 0.065
83 | GTTGCATATT | 0.978 ± 0.023
84 | GAGTTAGAAG | 0.9657 ± 0.0014
85 | AAAAGTGTTA | 0.977 ± 0.027
86 | ACTTTGCTCT | 1.032 ± 0.0064
87 | GACTTAGGAC | 1.02 ± 0.021
88 | TTGGGGGGA | 0.997 ± 0.048
89 | GACGTTTCAG | 0.95 ± 0.02
90 | TATTCGATTC | 1.04 ± 0.017
91 | AGCGGGAGGG | 1.02 ± 0.015
92 | TGATTTATTC | 0.9632 ± 0.0032

Row | Sequence | switch fluorescence ratio
93 | ACAGTCGTCT | 0.949 ± 0.042
94 | CGATATAGAC | 1.06 ± 0.013
95 | GTCCAAAAAA | 1.08 ± 0.067
96 | GTTTTGAGGT | 1.02 ± 0.028
97 | AGGTTTGCTA | 0.959 ± 0.017
98 | TTGCGGGGTT | 1.14 ± 0.15
99 | TTCGAATTGT | 0.976 ± 0.037
100 | TTATGTGTCG | 0.983 ± 0.033
101 | AAATGTTCTG | 0.948 ± 0.021
102 | CTTTATGGGA | 0.988 ± 0.031
103 | GTTGCGACGG | 1 ± 0.028
104 | AAACGAGGGT | 1.02 ± 0.03
105 | GAATTTAGCA | 1.02 ± 0.031
106 | CGTTTAACAT | 1.01 ± 0.014
107 | AAGGGGAACT | 0.9907 ± 0.0043
108 | GGCCAGCGGA | 1.01 ± 0.024
109 | GAGGGTTAC | 1.006 ± 0.0062
110 | GGGGATGTGT | 1 ± 0.035
111 | ATGTGGGTAT | 1.028 ± 0.0068
112 | TCAAGTTTGG | 1.02 ± 0.018
113 | GTGAATCGGG | 0.973 ± 0.032
114 | GGGATGTGGG | 1 ± 0.013
115 | CGTTTACAAG | 0.985 ± 0.033

Row | Sequence | switch fluorescence ratio
116 | CCGGCTTTCC | 1.15 ± 0.027
117 | GTCTCAAAGA | 1.017 ± 0.0083
118 | ACGATAATCG | 0.996 ± 0.008
119 | CTCGTTTTTG | 0.972 ± 0.012
120 | TTTAAGCTGG | 0.99 ± 0.017
121 | AACGCGGGGG | 0.983 ± 0.044
122 | GTGGGGCCTG | 0.955 ± 0.013
123 | AGAAGTCGCG | 0.9551 ± 0.0013
124 | TGTTATCGTT | 0.989 ± 0.018
125 | GCTCCAATTT | 1.07 ± 0.034
126 | GGCGATCATA | 0.984 ± 0.024
127 | CGGTGGGTTG | 0.969 ± 0.053
128 | TTTGTTGCTG | 1.03 ± 0.039
129 | ATATTCTACT | 1.025 ± 3.1e-05
130 | ATGAGCTATT | 1.03 ± 0.027
131 | TTAGCGCCGG | 1.03 ± 0.034
132 | GCTCTCACTT | 1.02 ± 0.043
133 | TTAAGACGGG | 1.002 ± 0.0017
134 | GTTTTTTTAA | 1 ± 0.034
135 | AAAGTTATAT | 1.022 ± 0.0028
136 | GCGAGGTTGA | 1.045 ± 0.0015
137 | GGCTACGGCG | 0.993 ± 0.016
138 | TTGATAAAAA | 0.998 ± 0.083

Row | Sequence | switch fluorescence ratio
139 | AAGGTTAAGG | 0.993 ± 0.025
140 | CGGTATTTAC | 1.04 ± 0.021
141 | GATGGTATGG | 1.007 ± 0.0052
142 | TTCAATTTGG | 1.01 ± 0.021
143 | TTTTAGGTGG | 0.98 ± 0.067
144 | CTTCTGGGCG | 1.02 ± 0.032
145 | GATGGGTACG | 1.02 ± 0.042
146 | ATGGTTTTTT | 1 ± 0.032
147 | GTAGGGGTTC | 0.982 ± 0.042
148 | GCTGCGAATT | 1.021 ± 0.01
149 | CTTACAGCTA | 1.097 ± 0.0016
150 | CTATTATTCT | 0.983 ± 0.018
151 | TTACTTGAGA | 0.99 ± 0.032
152 | AGGGGCAAGA | 1.04 ± 0.032
153 | TTATACGCTT | 1.1 ± 0.017
154 | GATTGGCACC | 0.965 ± 0.014
155 | TGGGTGAAGC | 0.991 ± 0.059
156 | GGGAACACGA | 1.01 ± 0.018
157 | ACATAAGTGG | 1.01 ± 0.011
